Experimental data reported in the supplement of paper PMC10567573.
± gives the standard deviation.

Assay: protein stability index of a GFP-peptide fusion (GPS, HEK-293T) (PSI 1-6); higher = more stable
[1] = treatment: DMSO, c terminus: a fixed tail appended
[2] = treatment: MLN4924 1 uM, 8 h, c terminus: a fixed tail appended
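Also: 24-mer peptide tiles fused after GFP, lentivirally expressed, FACS-sorted into six equal bins by GFP/DsRed ratio, decoded by Illumina sequencing, PSI is the read-weighted mean bin number.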

Sequence	protein stability index [1]	protein stability index [2]	protein stability index (treatment: DMSO, c terminus: native)	protein stability index (treatment: MLN4924 1 uM, 8 h, c terminus: native)
ILAHLTGTEFMQDPDEEHLKKSSQ [PDLIM7]	3.9 ± 0.13	4.16 ± 0.25	–	–
ILDLLVLEQFLSILPKELQGWVRE [ZSCAN9]	2.38 ± 0.45	2.19 ± 0.39	–	–
ILDQTTSEDAVGGATLGQTTSEEA [HDAC6]	5.42 ± 0.065	5.5 ± 0.15	–	–
ILLDPILMFFIMAAMLSMVKYNSC [POMT2]	3.27 ± 0.18	3.2 ± 0.05	–	–
ILTIICYLGLPRLEFYRYYQQLKL [SLC29A1]	3.31 ± 0.33	3.08 ± 0.56	–	–
IMALVAAILLLVIIILIVMKYRT [VAMP4]	–	–	3.07 ± 0.33	3.16 ± 0.07
INRADYCPECYPDNPANRSLVLPW [TOR1AIP2]	2.29 ± 0.33	2.76 ± 0.55	–	–
IPMHIDHDRNMDWVSTQLQATCNV [FADS1]	3 ± 0.28	3.24 ± 0.27	–	–
IPPKSVNPTCMCCQATSSTACHIQ [FAM219A]	3.7 ± 0.17	3.82 ± 0.26	–	–
IQGQNKEMLAAACQMFLGKTEAEI [FLOT1]	3.49 ± 0.15	3.42 ± 0.33	–	–
IQNAHKNSTGSGRGKKLMVLTEPI [TPRG1]	3.89 ± 0.24	3.66 ± 0.28	–	–
IQPSSEGLGPTSEPFPSSDDSPRS [SPAG8]	5.41 ± 0.21	5.35 ± 0.15	–	–
IQSLTCEVDGLRGTNEALLRQLRE [PRPH]	3.74 ± 0.4	3.96 ± 0.24	–	–
IQVEDIRIRAILSTYRKRTPVMEG [LOXL2]	2.13 ± 0.48	2.16 ± 0.35	–	–
IQVLPKLSSSIIHEIDSILGNKPY [KCNAB2]	1.98 ± 0.27	2.28 ± 0.27	–	–
IRVRGQRASRLQAPVLVAAPHSTF [LPCAT4]	2.6 ± 0.17	2.73 ± 0.22	–	–
ISPWNLPLYLLTWKIAPAMAAGNT [ALDH8A1]	3.06 ± 0.53	3.05 ± 0.62	–	–
ITKAFHVRKANRIKECLSKGTFSD [RHOBTB1]	2.7 ± 0.25	2.81 ± 0.51	–	–
ITLDGGVLVHVQKWDGKSTTIKRK [FABP4]	2.46 ± 0.38	3.06 ± 0.1	–	–
ITLKYPHYFPVMKKCCIPETRRRM [NLN]	2.1 ± 0.27	1.97 ± 0.37	–	–
ITWIAGAVTKDFKLTDKHETVVSY [ACSBG2]	2.3 ± 0.25	2.03 ± 0.33	–	–
ITWNRVVLLHGPPGTGKTSLCKAL [TRIP13]	2.32 ± 0.58	2.13 ± 0.2	–	–

Sequence	protein stability index [1]	protein stability index [2]	protein stability index (treatment: DMSO, c terminus: native)	protein stability index (treatment: MLN4924 1 uM, 8 h, c terminus: native)
IYDLNIPAFVKFAYVAEREDELSL [NCK2]	2.25 ± 0.39	2.51 ± 0.2	–	–
IYLINQKWFGRKRTLSAFLCLGGL [SLC22A15]	3.15 ± 0.26	3.01 ± 0.56	–	–
IYVVGGFDGTAHLSSVEAYNIRTD [KLHL12]	3.08 ± 0.28	–	–	–
KAFLTKTMLIVHHRTHTGERPYGC [ZNF649]	2.45 ± 0.3	2.03 ± 0.23	–	–
KAILEQNFRDLVRDLEKQKEEVRA [TRIM29]	4.43 ± 0.31	4.48 ± 0.24	–	–
KALAIILHLLYLLEKVECTPSQEH [FEM1A]	1.96 ± 0.35	1.99 ± 0.13	–	–
KAQALRDNSTMGYMMAKKHLEINP [HSP90AB1]	3.39 ± 0.14	3.5 ± 0.23	–	–
KCDSLKEECIPEHMVRESKIMEAE [FAN1]	5.2 ± 0.39	5 ± 0.22	–	–
KCPWMEGGEMSPQVETSIEGTIPF [INTS4]	4.08 ± 0.27	4.03 ± 0.2	–	–
KCVTMSSAVVQLYAADRNCMWSKK [WASL]	2.87 ± 0.18	2.88 ± 0.29	–	–
KDKEYAEIIRKQVSATKAEAEKDG [UBE2R2]	5.39 ± 0.29	5.38 ± 0.21	–	–
KEISRKRRSIRYGREVELKPYIAA [PTPRD]	3.27 ± 0.17	3.65 ± 0.44	–	–
KENSHQVKEELSQKFDTLYAILDE [TRIM63]	4.77 ± 0.27	4.57 ± 0.18	–	–
KFKESFAEMNRGSNEWKTVVGGAM [COX4I1]	3 ± 0.13	3.2 ± 0.29	–	–
KFPPEEELQREWLGNREALIQFLE [CPN1]	3.69 ± 0.18	3.8 ± 0.18	–	–
KGEFKDEEETVTTKHIHITQATET [CLINT1]	5.42 ± 0.059	5.4 ± 0.097	–	–
KGHERTVQYLQHLGTENLHLIFSY [VPS39]	2.39 ± 0.46	2.59 ± 0.67	–	–
KHGSLNRYHNSHPLRERARKLSQG [YJU2B]	3.73 ± 0.19	3.84 ± 0.12	–	–
KHLTARVLCLIVLPLALYTATFAV [POMT2]	3.38 ± 0.42	3.15 ± 0.58	–	–
KIDDLMQEITEQQDIAQEISEAFS [CHMP4C]	4.75 ± 0.35	4.67 ± 0.28	–	–
KIGFEIGIENEEDTSKQKKMETMY [ZNF449]	4.08 ± 0.29	4.07 ± 0.22	–	–
KINKIRWLPQQNAAYFLLSTNDKT [PPP2R2B]	2.69 ± 0.26	2.54 ± 0.039	–	–

Sequence	protein stability index [1]	protein stability index [2]	protein stability index (treatment: DMSO, c terminus: native)	protein stability index (treatment: MLN4924 1 uM, 8 h, c terminus: native)
KIRPDSSRPELLQPLNFVRFYLPL [GLT8D2]	2.19 ± 0.42	2.17 ± 0.18	–	–
KKGSNGYGFYLRAGSEQKGQIIKD [PDZK1]	3.19 ± 0.44	3.33 ± 0.27	–	–
KKKNTNKQEMGTYLRFIVSRMKER [ZMYND11]	2.47 ± 0.16	2.92 ± 0.25	–	–
KLATEAGVEVIVRISHTLYDLDKI [CRY1]	2.97 ± 0.32	3.13 ± 0.71	–	–
KLEESKQLLKNNEKLITWLNKELN [SASS6]	2.24 ± 0.36	1.99 ± 0.73	–	–
KLFAHSSDLLSEFKKHDADKVGLI [PPEF2]	2.63 ± 0.3	2.68 ± 0.38	–	–
KLPPYLIFCIKRFTKNNFFVEKNP [USP39]	3.02 ± 0.12	2.75 ± 0.4	–	–
KMELLILETQAQVCQALAQVDGGA [CPOX]	2.14 ± 0.52	2.18 ± 0.52	–	–
KMTDLLSRRLQLGSEENGRYFSLS [PCDHGC5]	2.41 ± 0.16	2.47 ± 0.14	–	–
KMVPRYDLNRHLDEMCANNDFVQV [FAN1]	2.81 ± 0.15	2.8 ± 0.46	–	–
KPDGTVEQIGHILVSWLPRLNAYR [NET1]	2.21 ± 0.52	2.1 ± 0.1	–	–
KPILLHQVEALAAAGVDHVILAVS [GMPPB]	2.55 ± 0.48	2.61 ± 0.5	–	–
KQNGRVAKVKGHRSQKHKERIRLL [C18orf25]	3.9 ± 0.28	3.97 ± 0.29	–	–
KQSLVVAVQDHGQPPLSATVTLTV [PCDHGA10]	2.72 ± 0.59	2.68 ± 0.45	–	–
KRESFLKYKCLLQQLYYTEADYED [IQUB]	2.2 ± 0.31	2.49 ± 0.3	–	–
KRFVAMKVVKSAQHYTETALDEIK [SRPK2]	2.97 ± 0.51	2.92 ± 0.38	–	–
KSYPSSELRNMCDEHIASEEPAEK [CLCN6]	5.53 ± 0.2	5.44 ± 0.27	–	–
KTHTGEKPHRCHNCGKSFSRLTAL [ZNF449]	2.47 ± 0.12	2.67 ± 0.45	–	–
KTTLGWKYEQAFESSQKYKEGKYI [YPEL3]	2.37 ± 0.3	2.63 ± 0.17	–	–
KVGKLAATAVGGGFFLLQLANHTG [FUNDC2]	2.38 ± 0.59	2.46 ± 0.87	–	–
KVPRPDALDNESWGFVHPRLLSVP [RETREG3]	2.91 ± 0.13	2.74 ± 0.081	–	–
